Reference: doi:10.1101/783266

Assays:
Experiment in all cases: BLI
[1] = target: LRX1^ΔE-FLAG (Arabidopsis thaliana) (UniProt O65375)
[2] = target: LRX4^ΔE-FLAG (Arabidopsis thaliana) (UniProt Q9LHF1)
[3] = target: LRX5^ΔE-FLAG (Arabidopsis thaliana) (UniProt Q9SN46)
Chain of UniProt Q9SN46 (Q9SN46 32-857, stated change not applied): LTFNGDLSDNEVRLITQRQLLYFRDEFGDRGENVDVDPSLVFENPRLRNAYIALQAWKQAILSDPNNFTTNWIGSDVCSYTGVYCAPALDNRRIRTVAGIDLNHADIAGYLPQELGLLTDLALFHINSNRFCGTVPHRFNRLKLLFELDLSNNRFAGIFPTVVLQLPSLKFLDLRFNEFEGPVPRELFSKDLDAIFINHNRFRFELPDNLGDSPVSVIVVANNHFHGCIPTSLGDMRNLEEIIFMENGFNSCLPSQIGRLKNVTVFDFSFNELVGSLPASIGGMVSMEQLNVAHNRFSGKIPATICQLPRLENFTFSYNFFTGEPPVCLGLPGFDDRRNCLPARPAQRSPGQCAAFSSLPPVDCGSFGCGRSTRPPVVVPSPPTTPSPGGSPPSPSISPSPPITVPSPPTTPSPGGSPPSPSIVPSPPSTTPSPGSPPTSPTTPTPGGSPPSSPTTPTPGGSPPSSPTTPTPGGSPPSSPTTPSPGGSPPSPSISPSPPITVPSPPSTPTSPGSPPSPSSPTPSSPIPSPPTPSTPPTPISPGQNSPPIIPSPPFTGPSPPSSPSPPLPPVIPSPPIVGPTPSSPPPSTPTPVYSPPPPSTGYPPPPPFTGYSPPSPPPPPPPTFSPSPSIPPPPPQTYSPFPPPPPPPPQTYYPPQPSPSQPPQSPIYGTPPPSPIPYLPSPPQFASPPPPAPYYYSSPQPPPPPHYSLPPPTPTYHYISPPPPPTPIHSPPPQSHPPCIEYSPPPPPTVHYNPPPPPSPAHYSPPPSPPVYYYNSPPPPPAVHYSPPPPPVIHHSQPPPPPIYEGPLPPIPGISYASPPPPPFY

Chain of UniProt Q9LHF1 (Q9LHF1 26-494, stated change not applied): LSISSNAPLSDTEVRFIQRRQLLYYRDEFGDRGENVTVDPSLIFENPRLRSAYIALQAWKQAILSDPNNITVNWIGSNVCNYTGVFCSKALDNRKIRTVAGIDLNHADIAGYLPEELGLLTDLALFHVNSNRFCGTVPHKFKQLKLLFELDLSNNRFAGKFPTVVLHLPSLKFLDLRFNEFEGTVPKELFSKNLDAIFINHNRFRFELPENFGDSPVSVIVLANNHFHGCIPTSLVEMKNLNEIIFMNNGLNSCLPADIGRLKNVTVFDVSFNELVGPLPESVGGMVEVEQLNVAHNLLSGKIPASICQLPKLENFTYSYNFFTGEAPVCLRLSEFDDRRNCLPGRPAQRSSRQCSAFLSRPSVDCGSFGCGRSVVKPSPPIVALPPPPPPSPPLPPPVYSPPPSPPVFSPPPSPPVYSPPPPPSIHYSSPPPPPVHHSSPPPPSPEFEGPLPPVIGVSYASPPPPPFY
Chain of UniProt O65375 (O65375 27-744, stated change not applied): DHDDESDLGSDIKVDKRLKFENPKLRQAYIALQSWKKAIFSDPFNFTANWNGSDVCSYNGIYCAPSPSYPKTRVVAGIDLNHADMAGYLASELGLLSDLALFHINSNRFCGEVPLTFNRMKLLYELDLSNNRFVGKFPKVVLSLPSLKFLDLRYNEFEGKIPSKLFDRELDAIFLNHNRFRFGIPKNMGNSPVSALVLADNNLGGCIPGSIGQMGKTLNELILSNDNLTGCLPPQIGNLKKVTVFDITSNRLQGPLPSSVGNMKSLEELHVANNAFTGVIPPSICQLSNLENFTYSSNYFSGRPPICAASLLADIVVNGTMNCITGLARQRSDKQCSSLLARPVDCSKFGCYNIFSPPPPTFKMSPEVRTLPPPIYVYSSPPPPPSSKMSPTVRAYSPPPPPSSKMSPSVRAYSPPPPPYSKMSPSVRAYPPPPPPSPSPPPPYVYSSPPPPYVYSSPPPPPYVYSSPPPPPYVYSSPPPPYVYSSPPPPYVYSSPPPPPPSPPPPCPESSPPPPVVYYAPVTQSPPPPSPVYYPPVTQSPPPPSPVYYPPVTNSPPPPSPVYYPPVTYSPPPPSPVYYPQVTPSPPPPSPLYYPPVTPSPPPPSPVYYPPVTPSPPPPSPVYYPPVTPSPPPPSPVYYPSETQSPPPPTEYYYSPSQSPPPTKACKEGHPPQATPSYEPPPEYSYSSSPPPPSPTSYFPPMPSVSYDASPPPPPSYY

Kd [1]: 5 nM
Kd [2]: 5 nM
Kd [3]: 5 nM
Binder: ATTKYISYQSLKRNSVPCSRRGASYYNCQNGAQANPYSRGCSKIARCRS [RALF1, in vitro synthesized peptide]
